Results: the supplement of paper PMC9732359
± gives the uncertainty stated by the source.

Test: protein stability index of a GFP-peptide fusion (yeast GPS) (PSI 1-4); higher = more stable; sorted into four equal gates, so the index is relative within each strain
Outline: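 Plasmids isolated from each sorting gate were PCR-amplified and Illumina-sequenced, and barcodes assigned the reads to strains. The gates, four of equal size, were set by GFP/Cherry fluorescence ratio on mid-log cultures in leucine-free medium. These cultures were yeast carrying a pooled library of tiled 17-residue yeast protein peptides fused downstream of GFP on a plasmid that also expresses Cherry. The protein stability index is the sum of every gate's read frequency times its gate number.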

Row | Sequence | protein stability index (doa10∆) | protein stability index (pdr5∆) | protein stability index (san1∆) | protein stability index (ubr1∆)
1 | LKELRIDNSPQAISYLH [GRR1] | 2.17 ± 0.054 | 2.55 ± 0.051 | 2.08 ± 0.057 | 2.4 ± 0.034
2 | LKESVEGEFNGDTIELA [PRE8] | 3.12 ± 0.092 | 3.48 ± 0.11 | 3.4 ± 0.072 | 3.2 ± 0.073
3 | LKGIQEFGADWYKVAKN [SWI3] | 3.25 ± 0.071 | 3.34 ± 0.072 | 3.37 ± 0.043 | 3.34 ± 0.057
4 | LKILKQVMEEKLDENNA [PUP2] | – | – | 2.8 ± 0.23 | –
5 | LKISGEEESLHVFQYAN [RPC37] | 1.85 ± 0.13 | 2.21 ± 0.13 | 2.27 ± 0.14 | 2.41 ± 0.071
6 | LKLEYYNLLVKISLHKR [RPN5] | 1.38 ± 0.26 | 1.28 ± 0.26 | – | 1.13 ± 0.084
7 | LKNEGIDLDHKRFLILQ [SMC4] | 2.21 ± 0.22 | 2.35 ± 0.13 | 2.15 ± 0.12 | 2.84 ± 0.068
8 | LKNKREIYRISFQLSKI [RPS9B] | 3.34 ± 0.18 | 3.66 ± 0.16 | 3.54 ± 0.062 | 3.38 ± 0.12
9 | LKNPEIFQRVGIKPPKG [RPT4] | 2.13 ± 0.12 | 2.18 ± 0.22 | 2.45 ± 0.12 | 2.31 ± 0.18
10 | LKNTMQYLTNFSRFRDQ [RPB4] | 3.09 ± 0.12 | 2.97 ± 0.17 | 3.1 ± 0.087 | 3.19 ± 0.074
11 | LKPSMSVALHRHSNALV [RPT3] | 1.64 ± 0.11 | 2.41 ± 0.15 | 2.51 ± 0.15 | 2.53 ± 0.22
12 | LKQEIDRGLSIKLNGST [SNU114] | 2.88 ± 0.092 | 3.17 ± 0.11 | 3 ± 0.099 | 2.88 ± 0.09
13 | LKQNAIRARIPFYGSYT [SRP54] | 2.82 ± 0.077 | 2.8 ± 0.063 | 2.5 ± 0.087 | 2.89 ± 0.062
14 | LKRLAWQYIVIDEAHRI [ISW2] | 1.77 ± 0.077 | 1.78 ± 0.1 | 2.45 ± 0.077 | 1.13 ± 0.09
15 | LKRNSWPKTRGVAMNPV [RPL2A] | 2.95 ± 0.18 | 3.32 ± 0.2 | 3.2 ± 0.16 | 2.83 ± 0.085
16 | LKSAIRDEIAKNTELSY [RPN12] | 1.41 ± 0.058 | 2.16 ± 0.1 | 1.51 ± 0.097 | 2.46 ± 0.056
17 | LKTADNRDRSFQLLEPL [PGD1] | 3.29 ± 0.058 | 3.38 ± 0.086 | 3.38 ± 0.039 | 3.18 ± 0.074
18 | LKTDGVRAVSITSFGFG [FAS2] | 1.44 ± 0.067 | 2.15 ± 0.099 | 1.5 ± 0.11 | 1.41 ± 0.05
19 | LKTLVQGPRSYFLDVKC [RPS27A] | 3.08 ± 0.076 | 3.21 ± 0.13 | 2.72 ± 0.12 | 2.99 ± 0.075
20 | LKTNGKQNNKDFRTRYI [MTW1] | 2.75 ± 0.059 | 2.84 ± 0.065 | 2.52 ± 0.081 | 2.51 ± 0.059
21 | LKYLSVEEVIKLVRDSF [PRE7] | 2.71 ± 0.13 | 3.27 ± 0.11 | 2.72 ± 0.12 | 3.08 ± 0.078
22 | LLAVAIAASYHYPEIED [RPP0] | 1.38 ± 0.074 | 2.11 ± 0.11 | 1.73 ± 0.13 | 1.91 ± 0.08
23 | LLENFANFKTSKKYQLA [RRP6] | 2.09 ± 0.25 | 2.57 ± 0.2 | 2.27 ± 0.21 | 2.33 ± 0.17
24 | LLENSVDKNFDKLELYV [MTW1] | 3.03 ± 0.052 | 2.64 ± 0.065 | 3.15 ± 0.065 | 2.97 ± 0.048
25 | LLEQDTSTEKLYKLNDK [PRE9] | 2.99 ± 0.062 | 3.08 ± 0.07 | 2.91 ± 0.058 | 2.91 ± 0.056
26 | LLFFNFSHSLTTILSFS [NUT1] | 1.41 ± 0.046 | 1.41 ± 0.034 | 1.46 ± 0.059 | 1.37 ± 0.033

Row | Sequence | protein stability index (doa10∆) | protein stability index (pdr5∆) | protein stability index (san1∆) | protein stability index (ubr1∆)
27 | LLGNCYSLRLINKEIFH [SRB8] | 1.79 ± 0.069 | 1.46 ± 0.094 | 1.46 ± 0.17 | 1.36 ± 0.073
28 | LLHEMTQTYMQMIELNR [GRR1] | 2.18 ± 0.072 | 2.11 ± 0.051 | 2.2 ± 0.088 | 1.68 ± 0.048
29 | LLNRIPRMYHIGLRQFQ [POP1] | 2.09 ± 0.099 | 1.51 ± 0.077 | 1.72 ± 0.18 | 1.3 ± 0.11
30 | LLNTDHTLDPSLLESGS [RPO21] | 2.93 ± 0.085 | 2.94 ± 0.099 | 2.99 ± 0.079 | 3.17 ± 0.059
31 | LLPFVKGNVGFVFTNEP [RPP0] | – | 1.77 ± 0.26 | – | 1.84 ± 0.17
32 | LLPQWDDDQIESLKKSP [ARP9] | 3.17 ± 0.085 | 3.15 ± 0.061 | 3.1 ± 0.051 | 3.12 ± 0.052
33 | LLQSSIINKLIHIQSKE [POP3] | 2.49 ± 0.069 | 2.5 ± 0.044 | 1.91 ± 0.058 | 2.28 ± 0.048
34 | LLQVNKTFCEDPFSDVD [GRR1] | 3.13 ± 0.072 | 3.35 ± 0.051 | 3.32 ± 0.035 | 3.28 ± 0.036
35 | LLRRLKKDVEKELPDKV [SNF2] | – | 3.67 ± 0.24 | 3.36 ± 0.092 | 3.38 ± 0.12
36 | LLSFVLGVVFGRGGSGW [YML031W/NDC1] | 2.33 ± 0.068 | 2.28 ± 0.067 | 2.31 ± 0.077 | 2.37 ± 0.096
37 | LLSLINSTHLLPLQPIE [SNF12] | 2.34 ± 0.053 | 2.46 ± 0.05 | 3.04 ± 0.052 | 2.4 ± 0.04
38 | LLTAKHGMTLRESFEDN [RPO21] | 2.96 ± 0.13 | 2.56 ± 0.087 | 2.6 ± 0.086 | 1.55 ± 0.092
39 | LLTVTPGPRLLYENIAS [RPN10] | 1.86 ± 0.036 | 1.92 ± 0.054 | 1.95 ± 0.086 | 1.82 ± 0.035
40 | LLVDQKQLNSLRRSGQI [SMD1] | 2.57 ± 0.047 | 2.79 ± 0.054 | 2.96 ± 0.061 | 2.72 ± 0.051
41 | LLVGLIKTFYWLEQFLS [NUT1] | 2.24 ± 0.12 | 1.11 ± 0.076 | 1.34 ± 0.14 | 1.24 ± 0.074
42 | LLVQSLNDMVLELKENY [NNF1] | 2.75 ± 0.14 | 1.52 ± 0.1 | – | –
43 | LLYLRLKNIYVSADDFV [PRP8] | 1.26 ± 0.052 | 1.39 ± 0.054 | 1.27 ± 0.097 | 1.16 ± 0.046
44 | LMISPKDEETTEKARLI [RRI2] | 2.8 ± 0.15 | 3.27 ± 0.18 | – | 3.04 ± 0.14
45 | LMKCCHEAYSIIEKITD [RRP45] | 2.56 ± 0.067 | 2.68 ± 0.09 | 2.56 ± 0.086 | 2.52 ± 0.18
46 | LMMVEKVPDSTYDMVGG [RPT6] | 2.6 ± 0.081 | 2.98 ± 0.071 | 2.84 ± 0.069 | 3.01 ± 0.068
47 | LMRSCFYLMVSSLSFGP [YJL039C/NUP192] | 1.64 ± 0.04 | 1.48 ± 0.04 | 1.76 ± 0.075 | 1.19 ± 0.033
48 | LMRTFLYTLAQETEGTN [SIR3] | 2.63 ± 0.12 | 2.63 ± 0.098 | – | 2.35 ± 0.11
49 | LMYSITFHHHGRQTVLI [SRB2] | 3 ± 0.07 | 3.18 ± 0.071 | 3.18 ± 0.06 | 3.12 ± 0.039
50 | LNDLVESSFIEIDDTEA [BRR2] | 2.9 ± 0.037 | 2 ± 0.043 | 2.13 ± 0.069 | 2.25 ± 0.029
51 | LNDMNTEISGLKNVNKR [SMC3] | 3.26 ± 0.064 | 3.27 ± 0.072 | 3.06 ± 0.058 | 3.12 ± 0.045
52 | LNDRKVLFAAYKVEHPF [RPB11] | 1.72 ± 0.055 | 2.23 ± 0.058 | 2.03 ± 0.084 | 2.27 ± 0.051
